Measurements published in publication PMC4994250.

Target: human CASKIN2 SAM1-SAM2 tandem (483-634), G537D/K540E double mutant (human) (UniProt Q8WXE0)
Test: AUC; sedimentation velocity, 300 mM NaCl, 20 mM sodium phosphate pH 7.8, 20 °C, 50,000 rpm; 10 and 34 μM loading, Kd fitted from the 34 μM experiment; monomer-dimer equilibrium (dimer to monomers)

Kd: 99.8 µM
Substance: human CASKIN2 SAM1-SAM2 tandem (483-634), G537D/K540E double mutant (from UniProt Q8WXE0 483-634) (domain or fragment)
